For one substance, percent dimer and stoichiometry N results are on record in publication doi:10.1101/553800.

The target in the test is hRIO2(1-321)Δ(131-146) (human) (UniProt Q9BVS4). The test is described as follows: AUC.

“hRIO2(1-321)Δ(131-146) (from UniProt Q9BVS4 1-321) (domain or fragment)” gave a percent dimer at 27 μM of over 20% and a stoichiometry N of 2.

As usually defined, the stoichiometry N is the number of molecules, sites or subunits per partner or assembly.
